Measured values from publication PMC12646664.
Each block holds one substance with its values, some of them ahead of it.

Target: Gα-interacting vesicle-associated protein (GIV), endogenous (human (endogenous in THP1)) (UniProt Q3V6T2)
Chain of UniProt Q3V6T2 (Q3V6T2 whole entry): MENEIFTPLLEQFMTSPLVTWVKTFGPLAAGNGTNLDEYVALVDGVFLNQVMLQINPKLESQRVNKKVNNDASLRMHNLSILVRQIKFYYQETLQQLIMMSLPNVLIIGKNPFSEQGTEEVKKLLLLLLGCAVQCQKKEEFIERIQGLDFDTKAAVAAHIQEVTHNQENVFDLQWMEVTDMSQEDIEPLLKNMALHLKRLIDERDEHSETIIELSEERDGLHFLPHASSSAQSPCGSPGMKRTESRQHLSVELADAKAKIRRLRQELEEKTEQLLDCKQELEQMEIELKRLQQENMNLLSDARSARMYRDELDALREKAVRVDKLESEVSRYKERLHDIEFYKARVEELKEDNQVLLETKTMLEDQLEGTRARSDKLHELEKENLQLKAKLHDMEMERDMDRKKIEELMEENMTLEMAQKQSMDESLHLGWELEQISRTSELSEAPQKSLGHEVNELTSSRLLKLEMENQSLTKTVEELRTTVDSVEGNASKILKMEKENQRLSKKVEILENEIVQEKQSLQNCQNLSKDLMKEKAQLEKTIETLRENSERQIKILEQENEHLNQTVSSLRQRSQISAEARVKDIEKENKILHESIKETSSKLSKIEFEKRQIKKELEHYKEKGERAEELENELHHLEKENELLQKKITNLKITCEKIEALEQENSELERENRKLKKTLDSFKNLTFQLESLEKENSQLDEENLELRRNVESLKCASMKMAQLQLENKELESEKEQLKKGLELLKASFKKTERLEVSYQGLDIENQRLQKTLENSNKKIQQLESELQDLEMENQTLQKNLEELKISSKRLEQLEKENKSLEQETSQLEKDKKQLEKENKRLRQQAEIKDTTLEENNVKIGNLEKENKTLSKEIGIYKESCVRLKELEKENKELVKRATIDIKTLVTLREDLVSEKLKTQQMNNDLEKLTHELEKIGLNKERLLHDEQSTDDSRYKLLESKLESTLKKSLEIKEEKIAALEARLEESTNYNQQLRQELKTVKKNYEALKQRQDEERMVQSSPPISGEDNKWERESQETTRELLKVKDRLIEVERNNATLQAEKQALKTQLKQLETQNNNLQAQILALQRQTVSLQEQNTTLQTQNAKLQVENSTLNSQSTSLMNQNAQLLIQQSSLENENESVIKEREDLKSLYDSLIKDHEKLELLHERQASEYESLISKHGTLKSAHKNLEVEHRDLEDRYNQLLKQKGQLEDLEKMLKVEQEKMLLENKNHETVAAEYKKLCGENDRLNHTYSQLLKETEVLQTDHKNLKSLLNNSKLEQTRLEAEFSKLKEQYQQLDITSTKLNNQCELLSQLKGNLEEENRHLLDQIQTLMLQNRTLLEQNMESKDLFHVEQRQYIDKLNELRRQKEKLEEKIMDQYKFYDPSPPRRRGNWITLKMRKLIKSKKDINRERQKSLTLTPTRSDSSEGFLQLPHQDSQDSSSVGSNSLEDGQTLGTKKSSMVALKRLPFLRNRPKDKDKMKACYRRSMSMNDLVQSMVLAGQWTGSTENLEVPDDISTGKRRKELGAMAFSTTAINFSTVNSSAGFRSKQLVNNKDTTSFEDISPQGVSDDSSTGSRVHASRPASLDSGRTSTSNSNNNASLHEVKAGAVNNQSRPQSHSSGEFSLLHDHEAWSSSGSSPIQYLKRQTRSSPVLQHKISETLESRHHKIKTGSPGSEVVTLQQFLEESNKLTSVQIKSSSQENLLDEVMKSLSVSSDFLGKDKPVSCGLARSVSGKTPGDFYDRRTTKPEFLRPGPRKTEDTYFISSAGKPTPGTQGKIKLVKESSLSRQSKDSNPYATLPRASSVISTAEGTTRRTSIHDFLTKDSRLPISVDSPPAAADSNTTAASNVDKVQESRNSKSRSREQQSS

suppression by MDP pretreatment (10 μg/mL) of LPS (100 ng/mL)-induced NF-κB activation, luciferase reporter assay in HeLa cells with NOD2-1007fs: 20 % protection
Substance: HA-NOD2 1007fs (from UniProt Q9HC29 1-1040) (natural protein)

suppression by MDP pretreatment (10 μg/mL) of LPS (100 ng/mL)-induced NF-κB activation, luciferase reporter assay in HeLa cells with NOD2-WT: 65 % protection
Substance: HA-NOD2 (wild type) (from UniProt Q9HC29 1-1040) (natural protein)

suppression by MDP pretreatment (10 μg/mL) of LPS (100 ng/mL)-induced NF-κB activation, luciferase reporter assay in HeLa cells with NOD2 G908R: 7 % protection
Substance: HA-NOD2 G908R (from UniProt Q9HC29 1-1040) (natural protein)

suppression by MDP pretreatment (10 μg/mL) of LPS (100 ng/mL)-induced NF-κB activation, luciferase reporter assay in HeLa cells with NOD2 R702W: 45 % protection
Substance: HA-NOD2 R702W (from UniProt Q9HC29 1-1040) (natural protein)
